tested on: Escherichia coli TOP10; test: shrunken log2 fold change of peptide-encoding DNA abundance (4.5 h post-induction vs induction); higher = less antimicrobial activity (less host growth inhibition); details: time post-induction: 4.5 h; library: site-saturation at positions 5, 18, 19, 20
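Further: peptides expressed intracellularly from a pBAD plasmid library in pooled LB shake-flask culture, induced with 0.3% L-arabinose, DNA abundance read by NGS, three biological replicates, DESeq2 with apeglm shrinkage.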

RRIRTRPPRLPRPRPRPLENPRP and RRIRDRPPRLPRPRPRPEVYPRP are within 0.2 log units of each other in “shrunken log2 fold change” value: 0.0394 for the first, -0.00999 for the second.

RRIRPRPPRLPRPRPRPWPWPRP and RRIRNRPPRLPRPRPRPCTYPRP are within 0.2 log units of each other in “shrunken log2 fold change” value: 0.0232 for the first, 0.05 for the second.

First: RRIRHRPPRLPRPRPRPIWLPRP
Second: RRIRPRPPRLPRPRPRPYPHPRP
The “shrunken log2 fold change” value of the first is higher: -0.00879 for the first, -0.237 for the second.

Compared with RRIRARPPRLPRPRPRPFEEPRP, RRIRQRPPRLPRPRPRPQMCPRP is lower in “shrunken log2 fold change” value: 0.424 for the first, 0.109 for the second.

Going from RRIRWRPPRLPRPRPRPSGLPRP to RRIRIRPPRLPRPRPRPMAAPRP, the “shrunken log2 fold change” value rises from 0.155 to 0.403.

RRIRMRPPRLPRPRPRPQQIPRP and RRIRRRPPRLPRPRPRPWQEPRP are within 0.2 log units of each other in “shrunken log2 fold change” value: 0.0607 for the first, 0.00489 for the second.

Compared with RRIRMRPPRLPRPRPRPQFPPRP, RRIRCRPPRLPRPRPRPHIWPRP is lower in “shrunken log2 fold change” value: 0.16 for the first, -0.6 for the second.

Going from RRIRYRPPRLPRPRPRPYPMPRP to RRIRSRPPRLPRPRPRPCYFPRP, the “shrunken log2 fold change” value rises from -0.744 to -0.387.

Going from RRIRGRPPRLPRPRPRPDNLPRP to RRIRRRPPRLPRPRPRPCWPPRP, the “shrunken log2 fold change” value rises from -0.226 to 0.0865.

RRIRRRPPRLPRPRPRPIIGPRP and RRIRLRPPRLPRPRPRPKLWPRP are within 0.2 log units of each other in “shrunken log2 fold change” value: 0.327 for the first, 0.296 for the second.

RRIRWRPPRLPRPRPRPWIYPRP and RRIRSRPPRLPRPRPRPQAMPRP are within 0.2 log units of each other in “shrunken log2 fold change” value: 0.0862 for the first, 0.182 for the second.

RRIRCRPPRLPRPRPRPPFYPRP and RRIRCRPPRLPRPRPRPIGVPRP are within 0.2 log units of each other in “shrunken log2 fold change” value: -0.0226 for the first, 0.0129 for the second.

Going from RRIRLRPPRLPRPRPRPKLEPRP to RRIRQRPPRLPRPRPRPMMGPRP, the “shrunken log2 fold change” value rises from -0.354 to -0.107.

First: RRIRWRPPRLPRPRPRPNITPRP
Second: RRIRMRPPRLPRPRPRPGKFPRP
The “shrunken log2 fold change” value of the first is lower: -0.161 for the first, 0.0419 for the second.

Compared with RRIRSRPPRLPRPRPRPGDHPRP, RRIRWRPPRLPRPRPRPSHQPRP is higher in “shrunken log2 fold change” value: -0.338 for the first, -0.0408 for the second.

RRIRYRPPRLPRPRPRPAKKPRP and RRIRVRPPRLPRPRPRPKNWPRP are within 0.2 log units of each other in “shrunken log2 fold change” value: 0.0499 for the first, 0.185 for the second.

First: RRIRFRPPRLPRPRPRPTWWPRP
Second: RRIRIRPPRLPRPRPRPWVQPRP
The “shrunken log2 fold change” value of the first is higher: 0.494 for the first, -0.0105 for the second.

First: RRIRWRPPRLPRPRPRPNNYPRP
Second: RRIRSRPPRLPRPRPRPFMCPRP
The “shrunken log2 fold change” value of the first is lower: -0.571 for the first, -0.255 for the second.

Compared with RRIRRRPPRLPRPRPRPCGTPRP, RRIRLRPPRLPRPRPRPMLHPRP is lower in “shrunken log2 fold change” value: 0.363 for the first, -0.34 for the second.

Compared with RRIRERPPRLPRPRPRPTSNPRP, RRIRRRPPRLPRPRPRPMISPRP is higher in “shrunken log2 fold change” value: -0.504 for the first, 0.044 for the second.

RRIRERPPRLPRPRPRPDLLPRP and RRIRQRPPRLPRPRPRPYGVPRP are within 0.2 log units of each other in “shrunken log2 fold change” value: -0.183 for the first, -0.0132 for the second.

Going from RRIRPRPPRLPRPRPRPKLHPRP to RRIRTRPPRLPRPRPRPTHIPRP, the “shrunken log2 fold change” value falls from -0.00244 to -0.308.

Compared with RRIRHRPPRLPRPRPRPEYSPRP, RRIRTRPPRLPRPRPRPGWQPRP is higher in “shrunken log2 fold change” value: -0.0276 for the first, 0.174 for the second.

RRIRHRPPRLPRPRPRPPCMPRP and RRIRNRPPRLPRPRPRPDHYPRP are within 0.2 log units of each other in “shrunken log2 fold change” value: -0.245 for the first, -0.202 for the second.

Going from RRIRRRPPRLPRPRPRPPEAPRP to RRIRERPPRLPRPRPRPKDPPRP, the “shrunken log2 fold change” value falls from 0.493 to 0.0145.

First: RRIRSRPPRLPRPRPRPPSKPRP
Second: RRIRERPPRLPRPRPRPMMKPRP
The “shrunken log2 fold change” value of the first is higher: 0.0454 for the first, -0.282 for the second.

Compared with RRIRHRPPRLPRPRPRPCIYPRP, RRIRMRPPRLPRPRPRPNGKPRP is higher in “shrunken log2 fold change” value: -0.196 for the first, 0.321 for the second.

First: RRIRSRPPRLPRPRPRPPRRPRP
Second: RRIRKRPPRLPRPRPRPPMVPRP
The “shrunken log2 fold change” value of the first is higher: 0.701 for the first, 0.296 for the second.

RRIRKRPPRLPRPRPRPRHLPRP and RRIRVRPPRLPRPRPRPPWVPRP are within 0.2 log units of each other in “shrunken log2 fold change” value: 0.218 for the first, 0.297 for the second.

Going from RRIRYRPPRLPRPRPRPEKNPRP to RRIRPRPPRLPRPRPRPVSYPRP, the “shrunken log2 fold change” value rises from -0.526 to -0.245.

Going from RRIRNRPPRLPRPRPRPYQIPRP to RRIRKRPPRLPRPRPRPTYTPRP, the “shrunken log2 fold change” value rises from -0.0282 to 0.475.

Compared with RRIRSRPPRLPRPRPRPPEEPRP, RRIRSRPPRLPRPRPRPYYLPRP is lower in “shrunken log2 fold change” value: -0.0451 for the first, -0.7 for the second.

RRIRRRPPRLPRPRPRPFFIPRP and RRIRERPPRLPRPRPRPIEMPRP are within 0.2 log units of each other in “shrunken log2 fold change” value: -0.0305 for the first, -0.0653 for the second.

First: RRIRERPPRLPRPRPRPCVKPRP
Second: RRIRPRPPRLPRPRPRPATPPRP
The “shrunken log2 fold change” value of the first is lower: -0.00643 for the first, 0.216 for the second.

Compared with RRIRRRPPRLPRPRPRPSSNPRP, RRIRNRPPRLPRPRPRPEHDPRP is higher in “shrunken log2 fold change” value: -0.148 for the first, 0.0627 for the second.

Compared with RRIRMRPPRLPRPRPRPLPCPRP, RRIRWRPPRLPRPRPRPNIKPRP is lower in “shrunken log2 fold change” value: 0.372 for the first, -0.384 for the second.

Going from RRIRDRPPRLPRPRPRPSVHPRP to RRIRKRPPRLPRPRPRPSQFPRP, the “shrunken log2 fold change” value rises from -0.258 to 0.164.

Compared with RRIRVRPPRLPRPRPRPKCMPRP, RRIRLRPPRLPRPRPRPMMFPRP is lower in “shrunken log2 fold change” value: 0.0847 for the first, -0.269 for the second.

Compared with RRIRIRPPRLPRPRPRPSSPPRP, RRIRNRPPRLPRPRPRPIQNPRP is higher in “shrunken log2 fold change” value: -0.746 for the first, -0.139 for the second.

RRIRQRPPRLPRPRPRPCGKPRP and RRIRRRPPRLPRPRPRPGSYPRP are within 0.2 log units of each other in “shrunken log2 fold change” value: -0.116 for the first, -0.0811 for the second.

Going from RRIRFRPPRLPRPRPRPAREPRP to RRIRLRPPRLPRPRPRPFNKPRP, the “shrunken log2 fold change” value falls from 0.612 to -0.324.

Going from RRIRSRPPRLPRPRPRPNNNPRP to RRIRTRPPRLPRPRPRPIAAPRP, the “shrunken log2 fold change” value rises from -0.604 to 0.894.

Compared with RRIRGRPPRLPRPRPRPCQIPRP, RRIRARPPRLPRPRPRPKKLPRP is higher in “shrunken log2 fold change” value: -0.0259 for the first, 0.223 for the second.

RRIRQRPPRLPRPRPRPNNAPRP and RRIRVRPPRLPRPRPRPYYIPRP are within 0.2 log units of each other in “shrunken log2 fold change” value: -0.216 for the first, -0.284 for the second.

RRIRHRPPRLPRPRPRPDQSPRP and RRIRWRPPRLPRPRPRPDYMPRP are within 0.2 log units of each other in “shrunken log2 fold change” value: -0.016 for the first, -0.0885 for the second.

Going from RRIRDRPPRLPRPRPRPGTLPRP to RRIRCRPPRLPRPRPRPHINPRP, the “shrunken log2 fold change” value falls from -0.00146 to -0.501.

RRIRSRPPRLPRPRPRPHHCPRP and RRIRGRPPRLPRPRPRPWWGPRP are within 0.2 log units of each other in “shrunken log2 fold change” value: -0.0623 for the first, -0.0457 for the second.

First: RRIRMRPPRLPRPRPRPNAVPRP
Second: RRIRSRPPRLPRPRPRPYDFPRP
The “shrunken log2 fold change” value of the first is higher: 0.0414 for the first, -0.195 for the second.

RRIRTRPPRLPRPRPRPEGRPRP and RRIRWRPPRLPRPRPRPFQPPRP are within 0.2 log units of each other in “shrunken log2 fold change” value: 0.1 for the first, -0.0697 for the second.

RRIRQRPPRLPRPRPRPNDEPRP and RRIRHRPPRLPRPRPRPVWSPRP are within 0.2 log units of each other in “shrunken log2 fold change” value: 0.0763 for the first, -0.103 for the second.

RRIRYRPPRLPRPRPRPLQRPRP and RRIRFRPPRLPRPRPRPQCDPRP are within 0.2 log units of each other in “shrunken log2 fold change” value: -0.208 for the first, -0.388 for the second.

Compared with RRIRPRPPRLPRPRPRPLYCPRP, RRIRIRPPRLPRPRPRPTKFPRP is higher in “shrunken log2 fold change” value: -0.548 for the first, -0.164 for the second.

RRIRRRPPRLPRPRPRPRHRPRP and RRIRQRPPRLPRPRPRPLTGPRP are within 0.2 log units of each other in “shrunken log2 fold change” value: 0.178 for the first, -0.0104 for the second.

RRIRVRPPRLPRPRPRPAVSPRP and RRIRLRPPRLPRPRPRPFDDPRP are within 0.2 log units of each other in “shrunken log2 fold change” value: 0.0786 for the first, -0.00884 for the second.

With RRIRIRPPRLPRPRPRPLSMPRP the “shrunken log2 fold change” value was -0.395.
